Assay results published in IntAct's records for PubMed 35850301.

B1: Maternal protein pumilio (Drosophila melanogaster (Fruit fly)), P25822 (parent)
chain: MKFLGGNDDRNGRGGVGVGTDAIVGSRGGVSQDAADAAGAAAAAAVGYVFQQRPSPGGVGVGVGGVGGGVPGVGAVGSTLHEAAAAEYAAHFAQKQQQTRWACGDDGHGIDNPDKWKYNPPMNPANAAPGGPPGNGSNGGPGAIGTIGMGSGLGGGGGGGAGGGNNGGSGTNGGLHHQSMAAAAANMAAMQQAAALAKHNHMISQAAAAVAAQQQHQHPHQQHPQQQQQQQQAQNQGHPHHLMGGGNGLGNGNGLGIQHPGQQQQQQQQQQQQQHPGQYNANLLNHAAALGHMSSYAQSGGSMYDHHGGAMHPGMNGGMPKQQPLGPPGAGGPQDYVYMGGQTTVPMGAAMMPPQNQYMNSSAVAAANRNAAITTSTAKKLWEKSDGKGVSSSTPGGPLHPLQIPGIGDPSSVWKDHTWSTQGENILVPPPSRAYAHGGASDTSNSGNAGILSPRDSTCAKVVEYVFSGSPTNKDSSLSGLEPHLRNLKFDDNDKSRDDKEKANSPFDTNGLKKDDQVTNSNGVVNGIDDDKGFNRTPGSRQPSPAEESQPRPPNLLFPPLPFNHMLMDHGQGMGGGLGGVVGSGNGVGGGSGGGGAGGAYAAHQQMAAQMSQLQPPMMNGVGGGMPMAAQSPMLNHQAAGPNHMESPGNLLQQQNFDVQQLFRSQNPGLAAVATNAAAAAAAAAAATSAASAAAAVGAPPVPNGSLQQSQQQQQQQQQQQQQQQMHMAAASQQFLAAQQQAQNAAYAAQQATSYVINPGQEAAPYMGMIAAAQMPYYGVAPWGMYPGNLIPQQGTQPRRPLTPSQQGAENQPYQVIPAFLDHTGSLLMGGPRTGTPMRLVSPAPVLVPPGATRAGPPPPQGPQLYQPQPQTAQQNLYSQQNGSSVGGLALNTSSLTGRRDSFDRSTSAFSPSTMDYTSSGVAAAANAVNSTVAQAAAAAAAAAAARGKWPGAMSGAASGAYGALGAGNASASPLGAPITPPPSAQSCLLGSRAPGAESRQRQQQQQQLAAVGLPATAAAAQAAVAAAANNMFGSNSSIFSNPLAIPGTAAVAAAAAAAAAANSRQVAATAAAAAAVAAAAGGVGGAPQPGRSRLLEDFRNQRYPNLQLRDLANHIVEFSQDQHGSRFIQQKLERATAAEKQMVFSEILAAAYSLMTDVFGNYVIQKFFEFGTPEQKNTLGMQVKGHVLQLALQMYGCRVIQKALESISPEQQQEIVHELDGHVLKCVKDQNGNHVVQKCIECVDPVALQFIINAFKGQVYSLSTHPYGCRVIQRILEHCTAEQTTPILDELHEHTEQLIQDQYGNYVIQHVLEHGKQEDKSILINSVRGKVLVLSQHKFASNVVEKCVTHATRGERTGLIDEVCTFNDNALHVMMKDQYANYVVQKMIDVSEPTQLKKLMTKIRPHMAALRKYTYGKHINAKLEKYYMKITNPITVGTGAGGVPAASSAAAVSSGATSASVTACTSGSSTTTTSTTNSLASPTICSVQENGSAMVVEPSSPDASESSSSVVSGAVNSSLGPIGPPTNGNVVL
partner: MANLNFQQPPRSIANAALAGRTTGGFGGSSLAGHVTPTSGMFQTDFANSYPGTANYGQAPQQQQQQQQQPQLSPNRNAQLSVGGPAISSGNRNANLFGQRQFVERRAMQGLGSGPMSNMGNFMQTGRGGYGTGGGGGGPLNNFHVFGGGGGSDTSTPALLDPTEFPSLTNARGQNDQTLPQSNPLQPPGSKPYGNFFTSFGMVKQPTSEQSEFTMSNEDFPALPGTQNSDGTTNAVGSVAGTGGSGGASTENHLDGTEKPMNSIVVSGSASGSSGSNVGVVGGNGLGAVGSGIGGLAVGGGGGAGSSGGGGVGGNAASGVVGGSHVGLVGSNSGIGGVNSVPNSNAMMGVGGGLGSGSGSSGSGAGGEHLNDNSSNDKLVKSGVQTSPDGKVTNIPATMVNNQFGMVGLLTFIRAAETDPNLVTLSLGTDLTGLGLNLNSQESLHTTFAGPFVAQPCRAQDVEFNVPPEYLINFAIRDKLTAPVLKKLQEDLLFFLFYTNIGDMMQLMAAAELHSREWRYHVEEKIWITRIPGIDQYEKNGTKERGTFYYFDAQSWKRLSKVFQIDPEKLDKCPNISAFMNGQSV

Variants of: B1
Details: with rga_drome Rga

Row | effect of a mutation on the interaction | Variant
1 | with no effect | F1040A
2 | decreasing interaction strength | F1033A;F1040A
3 | with no effect | F1033A

Variants of: B1
Details: with rga_drome Rga
Remark: another data set of the same source

Row | effect of a mutation on the interaction | Variant
4 | decreasing interaction strength | F1033A;F1040A
